Results from the Human Domainome abundance scans (Beltran et al. 2025).

B1: Myocardin-related transcription factor A, residues 341 to 383; numbered along this chain, Q969V6 (parent)
chain: GALPANLDDMKVAELKQELKLRSLPVSGTKTELIERLRAYQDQ
B2: Gamma-crystallin D, residues 90 to 170; numbered along this chain, P07320 (parent)
chain: IRLYEREDYRGQMIEFTEDCSCLQDRFRFNEIHSLNVLEGSWVLYELSNYRGRQYLLMPGDYRRYQDWGATNARVGSLRRV

Variants of: B1
Assay: abundance fitness (aPCA) (normalised: wild type 0, dead -1); higher = more abundant; growth selection in yeast, the domain comes from the species named
Conditions: Homo sapiens

Abundance fitness, by site and new letter:
L37: C -0.404; M -0.165; Q -0.631; E -0.504; R -0.462; W -0.403
Y40: R 0.042; D 0.308; P 0.192; S 0.246; F 0.12; L -0.062; C 0.127; A 0.247; V 0.179; G 0.202; N 0.127; M 0.02; H 0.228; W 0.178; T 0.08; E 0.179; Q -0.189; K -0.103
A39: N 0.259; I -0.034; Q 0.205; K 0.284; E 0.411; W 0.074; F -0.127; L 0.168; S 0.221; P 0.168; Y 0.129; V 0.187
R38: A 0.2; Q -0.24; V -0.152; W -0.236; H -0.201; E 0.074; P -0.107; L -0.224; M -0.052; C -0.301; S -0.126; T -0.233; D -0.588; I -0.086; F -0.626; K -0.138; Y -0.053; G -0.047
D42: K 0.022; E 0.137; H -0.23; P 0.059; A 0.205; I -0.538; R -0.234; T 0.037; Q -0.087; L -0.081; N 0.186; C 0.045; S -0.017; W -0.31
Q41: Y -0.307; P 0.066; L 0.069; C 0.061; G 0.262; R 0.089; W 0.083; I -0.021; M 0.107; S 0.081; F 0.222; H -0.125; V 0.055; N 0.18; K 0.202
Q43: E 0.357; T 0.164; C -0.037; H -0.01; W 0.208; R 0.567; S -0.029; V 0.334; I 0.042
R36: P -0.066; W -0.73; M -0.395; C -0.128; S -0.291; N -0.356; T -0.113; V -0.339; A -0.128; G -0.188; L -0.416; Q -0.201; E -0.529; I -0.728; K -0.234

Variants of: B2
Assay: as above
Conditions: Homo sapiens

Abundance fitness, by site and new letter:
L3: R -1.02; V 0.076; F -0.012; T -0.239; P -1; G -0.131; S 0.122
I1: T -0.37; M -0.021; V -0.094; L -0.1; N 0.12; W -1; F -0.462; A 0.139; G -0.344
R6: L 0.012; M -0.042; F -0.262; N 0.153; C 0.069; A 0.044; E -0.018; H -0.124; K -0.027; D -0.172; I -0.047; G -0.011
Y4: R -0.22; G -0.683; V -0.82; E -0.881; D 0.074; A -0.472; L -0.646; N 0.02; W -0.192; H 0.219; C 0.222
R2: T -0.105; V -0.146; L -0.162
E5: C -0.179; F 0.002; W 0.154; A -0.086; R 0.023; P 0.027; Q -0.013; K 0.112; S 0.046; N -0.096; T -0.146; V 0.053; H -0.176; D -0.013; Y 0.167; M 0.051; I 0.079; G -0.025
